Legend:
Assay in all cases: micro-array, phage-presented peptide on printed CK
GRO-β (CXCL2) = target: T1, GRO-β (CXCL2) (UniProt P19875 35-107)
T1 construct: Bought chemokine
T1 sequence (looked up): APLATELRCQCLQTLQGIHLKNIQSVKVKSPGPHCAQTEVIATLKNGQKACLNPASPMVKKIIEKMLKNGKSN
Description: (§1) (1) Printing: Chemokine (CK) solution (in water) was serially diluted with Print Reagent (GenTel BioSurfaces USA) to final concentrations of 50 μg and 25 μg/ml. BSA/BSA-Biotin control solutions (in water) were diluted with Print Reagent to 100 μg/ml. Amplified stock of M13 phage control (M13KEgIII Cloning Vector, New England Biolabs, Cat.No.E8101S) was stored in Tris Buffered Saline (TBS; pH7.5, 4° C.) and diluted with Print Reagent to the working titre (10^8 pfu/μl). An automated spotting robot (16 pin print tool, 0.4mm head; BioRobotics, UK) was used to print the CK/BSA control/M13 control, 5 repeats per sample (CK 25 μg/ml and 50 μg/ml; BSA 100 μg/ml; M13 20 μl), on PATH Protein Microarray Slides (GenTel, Prod.No.2-1005/-1025) at […], and 50-70% relative humidity. Printed micro-array slides were stored at Room Temperature (RT) or 4° C. for at least 24 h before use.
(§2) (2) Blocking: Block Buffer (500 μl/partition; PATHblock, GenTel, Prod.No.2-1014) was applied to the slide for 1 hour at room temp (RT). After removal of Block Buffer, the slide was air dried for 25 minutes;
(§3) (11) Analysis: Quantitative analysis of micro-array was performed by the SpotReader program of Niles Scientific (USA) and presented as Relative Fluorescence (RF) as a function of CK concentration. Micro-array readout (Cy3 fluorescence) was quantified to determine the relative binding affinities of a CBP for the CKs and by inference, the specificity of the CBP for binding to a CK.

Mig (CXCL9) = target: T2, Mig (CXCL9) (UniProt Q07325 23-125)
T2 construct: Bought chemokine
T2 sequence (looked up): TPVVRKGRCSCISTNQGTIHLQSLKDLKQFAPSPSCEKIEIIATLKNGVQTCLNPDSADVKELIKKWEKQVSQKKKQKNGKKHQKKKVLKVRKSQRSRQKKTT
Description: as §1, §2, §3

I-TAC (CXCL11) = target: T3, I-TAC (CXCL11) (UniProt O14625 22-94)
T3 construct: Bought chemokine; also called I-TACK
T3 sequence (looked up): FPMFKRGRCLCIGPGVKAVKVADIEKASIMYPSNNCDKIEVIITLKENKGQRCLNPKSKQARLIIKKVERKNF
Description: as §1, §2, §3

I-309 (CCL1) = target: T4, I-309 (CCL1) (UniProt P22362 23-96, limits assumed)
T4 construct: Bought chemokine
T4 sequence (looked up): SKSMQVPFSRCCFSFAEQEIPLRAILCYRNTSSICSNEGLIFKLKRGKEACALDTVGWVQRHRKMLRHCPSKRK
Description: as §1, §2, §3

MCP-1 (CCL2) = target: T5, MCP-1 (CCL2) (UniProt P13500 24-99)
T5 construct: Bought chemokine
Description: as §1, §2, §3

MCP-2 (CCL8) = target: T6, MCP-2 (CCL8) (UniProt P80075 24-99)
T6 construct: Bought chemokine
T6 sequence (looked up): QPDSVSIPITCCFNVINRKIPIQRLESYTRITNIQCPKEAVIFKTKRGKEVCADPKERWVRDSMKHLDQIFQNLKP
Description: as §1, §2, §3

MCP-4 (CCL13) = target: T7, MCP-4 (CCL13) (UniProt Q99616 24-98)
T7 construct: Bought chemokine
Description: as §1, §2, §3

RANTES (CCL5) = target: T8, RANTES (CCL5) (UniProt P13501 24-91)
T8 construct: Bought chemokine
T8 sequence (looked up): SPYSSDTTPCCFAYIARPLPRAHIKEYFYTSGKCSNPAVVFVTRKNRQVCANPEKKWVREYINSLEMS
Description: as §1, §2, §3

Eotaxin (CCL11) = target: T9, Eotaxin (CCL11) (UniProt P51671 24-97)
T9 construct: Bought chemokine
Description: as §1, §2, §3

Eotaxin 2 (CCL24) = target: T10, Eotaxin 2 (CCL24) (UniProt O00175 27-104, limits assumed)
T10 construct: Bought chemokine
T10 sequence (looked up): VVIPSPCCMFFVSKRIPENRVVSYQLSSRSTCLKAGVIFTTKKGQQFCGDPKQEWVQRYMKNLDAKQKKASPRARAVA
Description: as §1, §2, §3

Eotaxin 3 (CCL26) = target: T11, Eotaxin 3 (CCL26) (UniProt Q9Y258 24-94)
T11 construct: Bought chemokine
T11 sequence (looked up): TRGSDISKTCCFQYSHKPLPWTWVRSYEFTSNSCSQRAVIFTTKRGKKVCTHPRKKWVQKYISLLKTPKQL
Description: as §1, §2, §3

MDC(69aa) (CCL22) = target: T12, MDC(69aa) (CCL22) (UniProt O00626 25-93)
T12 construct: Bought chemokine
T12 sequence (looked up): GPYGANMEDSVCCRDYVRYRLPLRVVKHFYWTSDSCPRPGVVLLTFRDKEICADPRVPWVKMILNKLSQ
Description: as §1, §2, §3

BCA-1 (CXCL13) = target: T13, BCA-1 (CXCL13) (UniProt O43927 23-109)
T13 construct: Bought chemokine
T13 sequence (looked up): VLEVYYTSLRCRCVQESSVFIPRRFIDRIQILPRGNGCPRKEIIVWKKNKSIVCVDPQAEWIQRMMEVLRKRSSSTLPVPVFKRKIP
Description: as §1, §2, §3

TECK (CCL25) = target: T14, TECK (CCL25) (UniProt O15444 24-150)
T14 construct: Bought chemokine
T14 sequence (looked up): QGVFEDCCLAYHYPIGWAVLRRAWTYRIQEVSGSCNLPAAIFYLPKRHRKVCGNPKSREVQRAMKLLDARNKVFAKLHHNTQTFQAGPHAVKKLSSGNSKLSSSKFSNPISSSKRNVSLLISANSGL
Description: as §1, §2, §3

Lymphotactin (XCL-1) = target: T15, Lymphotactin (XCL-1) (UniProt P47992 23-114, limits assumed)
T15 construct: Bought chemokine
T15 sequence (looked up): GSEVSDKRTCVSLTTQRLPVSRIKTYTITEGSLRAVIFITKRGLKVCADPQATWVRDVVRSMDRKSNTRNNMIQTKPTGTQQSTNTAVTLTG
Description: as §1, §2, §3

IL-8 (CXCL8) = target: T16, IL-8 (CXCL8) (UniProt P10145 28-99, limits assumed)
T16 construct: also called IL-8(72aa); IL-8(77aa)
T16 sequence (looked up): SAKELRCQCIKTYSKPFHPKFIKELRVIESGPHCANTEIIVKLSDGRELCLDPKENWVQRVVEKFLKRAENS
Description: as §1, §2, §3

SDF-1α (CXCL12) = target: T17, SDF-1α (CXCL12) (UniProt P48061-2 22-89)
T17 construct: Alpha isoform of CXCL12; also called SDFα
Description: as §1, §2, §3

SDF-1β (CXCL12) = target: T18, SDF-1β (CXCL12) (UniProt P48061 22-93)
T18 construct: Beta isoform of CXCL12; also called SDFβ
Description: as §1, §2, §3

Exodus-2 (CCL21) = target: T19, Exodus-2 (CCL21) (UniProt O00585 24-134)
T19 construct: Bought chemokine
T19 sequence (looked up): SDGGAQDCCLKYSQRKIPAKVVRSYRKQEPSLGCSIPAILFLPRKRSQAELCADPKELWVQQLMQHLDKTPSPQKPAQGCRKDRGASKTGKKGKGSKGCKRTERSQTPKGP
Description: as §1, §2, §3

IP-10 (CXCL10) = target: T20, IP-10 (CXCL10) (UniProt P02778 22-98)
T20 construct: Bought chemokine
T20 sequence (looked up): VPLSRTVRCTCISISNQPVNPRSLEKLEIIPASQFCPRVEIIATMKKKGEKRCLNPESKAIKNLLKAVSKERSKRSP
Description: as §1, §2, §3

T7 sequence (Q99616 24-98 limits assumed): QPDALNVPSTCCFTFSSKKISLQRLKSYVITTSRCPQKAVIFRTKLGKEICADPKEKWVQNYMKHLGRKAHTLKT
T5 sequence (P13500 24-99 limits assumed): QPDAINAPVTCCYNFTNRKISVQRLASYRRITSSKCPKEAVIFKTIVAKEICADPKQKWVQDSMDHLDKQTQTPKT
T9 sequence (P51671 24-97 limits assumed): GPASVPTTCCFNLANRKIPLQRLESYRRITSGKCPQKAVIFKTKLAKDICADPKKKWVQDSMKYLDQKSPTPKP
T18 sequence (P48061 22-93 limits assumed): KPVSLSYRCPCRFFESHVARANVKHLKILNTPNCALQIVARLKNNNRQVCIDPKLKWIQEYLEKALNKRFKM
T17 sequence (P48061 22-89 limits assumed): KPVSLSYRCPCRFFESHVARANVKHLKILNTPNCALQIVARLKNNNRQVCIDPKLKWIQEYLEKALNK

Binder	Relative Fluorescence Units (RFU) (MCP-4 (CCL13))	Relative Fluorescence Units (RFU) (RANTES (CCL5))	binding result (Eotaxin (CCL11))	binding result (Eotaxin 3 (CCL26))	binding result (BCA-1 (CXCL13))	binding result (TECK (CCL25))	binding result (Lymphotactin (XCL-1))	Relative Fluorescence Units (RFU) (IL-8 (CXCL8))	Relative Fluorescence Units (RFU) (Mig (CXCL9))	Relative Fluorescence Units (RFU) (MCP-1 (CCL2))	Relative Fluorescence Units (RFU) (MCP-2 (CCL8))	binding result (Exodus-2 (CCL21))	further results
HHTCSLHFP [Phage-Presented Peptide 16 (Ph-p16)]	> 15000	> 15000	binds	binds	binds	binds	binds	–	–	–	–	–	binding result (GRO-β (CXCL2)): binds; binding result (Mig (CXCL9)): binds; binding result (I-TAC (CXCL11)): binds; binding result (I-309 (CCL1)): binds; binding result (MCP-1 (CCL2)): binds; binding result (MCP-2 (CCL8)): binds; binding result (Eotaxin 2 (CCL24)): binds; binding result (MDC(69aa) (CCL22)): binds
DYDYG [Phage-Presented Peptide 31 (Ph-p31)]	> 15000	> 15000	–	–	binds	binds	binds	> 15000	> 15000	> 15000	> 15000	binds	Relative Fluorescence Units (RFU) (I-TAC (CXCL11)): > 15000 RFU; Relative Fluorescence Units (RFU) (I-309 (CCL1)): > 15000 RFU; Relative Fluorescence Units (RFU) (Eotaxin (CCL11)): > 15000 RFU; Relative Fluorescence Units (RFU) (Eotaxin 2 (CCL24)): > 15000 RFU; Relative Fluorescence Units (RFU) (Eotaxin 3 (CCL26)): > 15000 RFU; binding result (SDF-1α (CXCL12)): binds; binding result (SDF-1β (CXCL12)): binds
WVFGHGMCK [Phage-Presented Peptide 25 (Ph-p25)]	> 15000	–	binds	binds	binds	binds	binds	> 15000	> 15000	> 15000	> 15000	binds	Relative Fluorescence Units (RFU) (GRO-β (CXCL2)): > 15000 RFU; Relative Fluorescence Units (RFU) (IP-10 (CXCL10)): > 15000 RFU; binding result (RANTES (CCL5)): binds
